{"source": "paper PMC11764136", "origin": "cited, not measured here", "biological_target": "amyloid-β oligomers Aβ (Homo sapiens) (UniProt P05067)", "note": "pKd: −log10 of the molar value.", "data": [{"substance": "PrPC (from UniProt P04156)", "values": [{"measurement": "pKd", "value": 8.40}]}]}
